Data on two substances can be found in patent US20050107285A1.

The target in experiment [1] is FcγRIIIb receptor on human neutrophils (human) (UniProt O75015). The experiment is described as follows: cell-based or functional assay.
Experiment [2] shares this target. The experiment is described as follows: flow cytometry of TNFα-primed human neutrophils with saturating FITC-Leu11b, quantified with Quantum Simply Cellular microbeads.

Chain of UniProt O75015 (O75015 17-200): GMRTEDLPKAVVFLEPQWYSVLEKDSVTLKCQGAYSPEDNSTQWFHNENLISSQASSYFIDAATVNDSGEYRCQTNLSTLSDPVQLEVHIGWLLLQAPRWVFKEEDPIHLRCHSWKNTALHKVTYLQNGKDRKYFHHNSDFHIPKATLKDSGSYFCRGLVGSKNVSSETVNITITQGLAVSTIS

“insoluble IgG-containing immune complexes (human serum albumin and rabbit anti-HSA antibodies) (from UniProt P02768 25-609)” came in with a respiratory burst (luminol chemiluminescence) of primed neutrophils after PI-PLC depletion of surface FcγRIIIb in experiment [1] of 70 % decrease. On to “FITC-labelled Leu11b (anti-CD16) (antibody)”, for which the antibody-binding sites per cell (antibody-binding sites per cell) in experiment [2] stood at 240000.
